Columns and labels:
Test in all cases: SPR
[1] = target: human Langerin ectodomain (recombinant) (Homo sapiens, UniProt Q9UJ71)
[2] = target: mouse Langerin ectodomain (recombinant) (Mus musculus, UniProt Q8VBX4)
[3] = target: T1, rabbit Langerin ectodomain (recombinant) (rabbit)
T1 chain: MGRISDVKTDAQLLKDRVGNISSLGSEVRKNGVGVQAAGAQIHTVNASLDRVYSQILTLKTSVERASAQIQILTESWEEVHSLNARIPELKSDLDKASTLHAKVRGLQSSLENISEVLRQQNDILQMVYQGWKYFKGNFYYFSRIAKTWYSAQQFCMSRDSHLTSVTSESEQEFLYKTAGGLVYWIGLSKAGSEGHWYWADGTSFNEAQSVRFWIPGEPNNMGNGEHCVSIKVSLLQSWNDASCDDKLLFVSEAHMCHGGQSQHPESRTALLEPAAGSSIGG

Sequence of mouse Langerin ectodomain (recombinant) (Q8VBX4 63-331): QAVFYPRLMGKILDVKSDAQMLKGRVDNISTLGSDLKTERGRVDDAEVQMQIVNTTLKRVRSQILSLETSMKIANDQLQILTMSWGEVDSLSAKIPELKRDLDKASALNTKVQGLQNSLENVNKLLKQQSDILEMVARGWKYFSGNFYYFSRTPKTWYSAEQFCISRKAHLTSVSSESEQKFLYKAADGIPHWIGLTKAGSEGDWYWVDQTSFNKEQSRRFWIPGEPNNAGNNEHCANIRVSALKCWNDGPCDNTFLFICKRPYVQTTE
Sequence of human Langerin ectodomain (recombinant) (Q9UJ71 65-328): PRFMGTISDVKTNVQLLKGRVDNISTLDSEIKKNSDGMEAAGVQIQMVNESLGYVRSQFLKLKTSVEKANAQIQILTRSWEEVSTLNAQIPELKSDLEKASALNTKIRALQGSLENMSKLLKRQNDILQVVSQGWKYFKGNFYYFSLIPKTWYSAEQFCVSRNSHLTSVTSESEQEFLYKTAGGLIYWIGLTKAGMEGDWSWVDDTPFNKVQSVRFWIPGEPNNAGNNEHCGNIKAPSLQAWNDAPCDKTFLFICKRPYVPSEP

B1: LC^3.Env^3 (fibritin-stabilised HIV-1 Env gp140z trimer fused to three scFv of the anti-Langerin 4C7 mAb) (scFv, V domains shown)
VH: QVQLQQSGAELVRPGASVTLSCKASGYTFIDHDMHWVQQTPVYGLEWIGAIDPETGDTGYNQKFKGKAILTADKSSRTAYMELRSLTSEDSAVYYCTIPFYYSNYSPFAYWGQGTLVTVSA
VL: QIVLSQSPAILSASPGEKVTMTCRASSSVSYMHWYQRKPGSSPKPWIYATSNLASGVPARFSGSGSGTSYSLTISRVEAEDAATYYCQQWSSNPLTFGAGTKLELK
[1]
  Kd: ~3.5 nM
[2]
  Kd: ~3.5 nM
[3]
  Kd: ~3.5 nM

B2: LC.Env (anti-Langerin 4C7 mAb fused to HIV-1 envelope gp140z from clade C 96ZM651) (antibody, V domains shown)
VH: QVQLQQSGAELVRPGASVTLSCKASGYTFIDHDMHWVQQTPVYGLEWIGAIDPETGDTGYNQKFKGKAILTADKSSRTAYMELRSLTSEDSAVYYCTIPFYYSNYSPFAYWGQGTLVTVSA
VL: QIVLSQSPAILSASPGEKVTMTCRASSSVSYMHWYQRKPGSSPKPWIYATSNLASGVPARFSGSGSGTSYSLTISRVEAEDAATYYCQQWSSNPLTFGAGTKLELK
[1]
  Kd: ~0.7 nM
[2]
  Kd: ~0.7 nM
[3]
  Kd: ~0.7 nM
